This note sets out measurements from paper PMC8634136 (The EMBO Journal, 2021).

First the molecules themselves.
B1: TIMELESS (natural protein, human)
chain: MDLHMMNCELLATCSALGYLEGDTYHKEPDCLESVKDLIRYLRHEDETRDVRQQLGAAQILQSDLLPILTQHHQDKPLFDAVIRLMVNLTQPALLCFGNLPKEPSFRHHFLQVLTYLQAYKEAFASEKAFGVLSETLYELLQLGWEERQEEDNLLIERILLLVRNILHVPADLDQEKKIDDDASAHDQLLWAIHLSGLDDLLLFLASSSAEEQWSLHVLEIVSLMFRDQNPEQLAGVGQGRLAQERSADFAELEVLRQREMAEKKTRALQRGNRHSRFGGSYIVQGLKSIGERDLIFHKGLHNLRNYSSDLGKQPKKVPKRRQAARELSIQRRSALNVRLFLRDFCSEFLENCYNRLMGSVKDHLLREKAQQHDETYYMWALAFFMAFNRAASFRPGLVSETLSVRTFHFIEQNLTNYYEMMLTDRKEAASWARRMHLALKAYQELLATVNEMDISPDEAVRESSRIIKNNIFYVMEYRELFLALFRKFDERCQPRSFLRDLVETTHLFLKMLERFCRSRGNLVVQNKQKKRRKKKKKVLDQAIVSGNVPSSPEEVEAVWPALAEQLQCCAQNSELSMDSVVPFDAASEVPVEEQRAEAMVRIQDCLLAGQAPQALTLLRSAREVWPEGDVFGSQDISPEEEIQLLKQILSAPLPRQQGPEERGAEEEEEEEEEEEEELQVVQVSEKEFNFLDYLKRFACSTVVRAYVLLLRSYQQNSAHTNHCIVKMLHRLAHDLKMEALLFQLSVFCLFNRLLSDPAAGAYKELVTFAKYILGKFFALAAVNQKAFVELLFWKNTAVVREMTEGYGSLDDRSSSRRAPTWSPEEEAHLRELYLANKDVEGQDVVEAILAHLNTVPRTRKQIIHHLVQMGLADSVKDFQRKGTHIVLWTGDQELELQRLFEEFRDSDDVLGHIMKNITAKRSRARIVDKLLALGLVAERRELYKKRQKKLASSILPNGAESLKDFCQEDLEEEENLPEEDSEEEEEGGSEAEQVQGSLVLSNENLGQSLHQEGFSIPLLWLQNCLIRAADDREEDGCSQAVPLVPLTEENEEAMENEQFQQLLRKLGVRPPASGQETFWRIPAKLSPTQLRRAAASLSQPEEEQKLQPELQPKVPGEQGSDEEHCKEHRAQALRALLLAHKKKAGLASPEEEDAVGKEPLKAAPKKRQLLDSDEEQEEDEGRNRAPELGAPGIQKKKRYQIEDDEDD
notes: Stood in the structure as a subunit of m3; residues 7-803 modelled (527-684 not visualised)

Common to all, as to conditions: both partners purified
One assay addresses T1, CLASPIN (human, UniProt Q9HAW4 1-1339).
T1 construct: CLASPIN, human; Only residues 284-319, 525-540 and 592-618 are modelled in the structure; source: Hi5 insect cells (baculovirus), purified (Flag M2, Superose 6)
The experiment in a line: cryo-EM structure; replisome reconstituted on fork DNA with AMP-PNP, isolated on a glycerol gradient with glutaraldehyde and BS3; 3.2 Å overall; a sample without CLASPIN solved at 3.4 Å.

The assay “TIMELESS” has as its target B1. The description is as above.
The target of the next assay is T2, MCM3 (human, UniProt P25205-1 1-808).
T2 construct: human MCM3, subunit of hsCMG; the construct lacks the 45 additional N-terminal residues of the longer isoform used in PDB 6XTX; Subunit of the CMG helicase in the replisome structure; source: Hi5 insect cells co-infected with baculoviruses for MCM2-7, GINS and CDC45; purified as hsCMG (Flag M2, Strep-Tactin XT, MonoQ)
T2 sequence: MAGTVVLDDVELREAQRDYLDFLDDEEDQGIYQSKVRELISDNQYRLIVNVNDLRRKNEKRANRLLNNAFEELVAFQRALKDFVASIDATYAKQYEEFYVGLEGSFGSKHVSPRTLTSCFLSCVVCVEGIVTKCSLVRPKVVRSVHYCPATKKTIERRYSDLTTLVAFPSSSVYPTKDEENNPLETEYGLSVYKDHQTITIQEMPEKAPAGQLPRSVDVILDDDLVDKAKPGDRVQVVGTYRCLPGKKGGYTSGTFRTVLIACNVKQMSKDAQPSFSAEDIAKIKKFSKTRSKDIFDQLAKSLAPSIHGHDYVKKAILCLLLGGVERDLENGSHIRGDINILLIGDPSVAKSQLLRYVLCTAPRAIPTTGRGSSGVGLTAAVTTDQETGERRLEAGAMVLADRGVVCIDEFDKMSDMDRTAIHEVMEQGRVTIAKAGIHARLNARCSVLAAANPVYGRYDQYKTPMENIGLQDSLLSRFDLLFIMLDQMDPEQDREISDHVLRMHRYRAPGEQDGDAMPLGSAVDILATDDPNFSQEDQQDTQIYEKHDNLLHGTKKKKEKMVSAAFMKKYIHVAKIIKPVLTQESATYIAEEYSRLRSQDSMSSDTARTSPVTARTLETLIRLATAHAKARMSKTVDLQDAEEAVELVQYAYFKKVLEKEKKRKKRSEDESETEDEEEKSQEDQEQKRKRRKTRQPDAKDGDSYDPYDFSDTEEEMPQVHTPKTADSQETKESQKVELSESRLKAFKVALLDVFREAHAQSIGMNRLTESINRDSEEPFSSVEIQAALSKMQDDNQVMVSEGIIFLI
The experiment in a line: cryo-EM structure; core human replisome (100 nM hsCMG with 1.5-fold excess of AND-1, TIMELESS-TIPIN, Pol ε, CLASPIN) on fork DNA with AMP-PNP; glycerol gradient with glutaraldehyde and BS3; consensus map 3.2 Å and multi-body map of Pol ε/CDC45/GINS; PDB 7PFO.

T1 sequence (Q9HAW4 whole entry, the tested form may be a part): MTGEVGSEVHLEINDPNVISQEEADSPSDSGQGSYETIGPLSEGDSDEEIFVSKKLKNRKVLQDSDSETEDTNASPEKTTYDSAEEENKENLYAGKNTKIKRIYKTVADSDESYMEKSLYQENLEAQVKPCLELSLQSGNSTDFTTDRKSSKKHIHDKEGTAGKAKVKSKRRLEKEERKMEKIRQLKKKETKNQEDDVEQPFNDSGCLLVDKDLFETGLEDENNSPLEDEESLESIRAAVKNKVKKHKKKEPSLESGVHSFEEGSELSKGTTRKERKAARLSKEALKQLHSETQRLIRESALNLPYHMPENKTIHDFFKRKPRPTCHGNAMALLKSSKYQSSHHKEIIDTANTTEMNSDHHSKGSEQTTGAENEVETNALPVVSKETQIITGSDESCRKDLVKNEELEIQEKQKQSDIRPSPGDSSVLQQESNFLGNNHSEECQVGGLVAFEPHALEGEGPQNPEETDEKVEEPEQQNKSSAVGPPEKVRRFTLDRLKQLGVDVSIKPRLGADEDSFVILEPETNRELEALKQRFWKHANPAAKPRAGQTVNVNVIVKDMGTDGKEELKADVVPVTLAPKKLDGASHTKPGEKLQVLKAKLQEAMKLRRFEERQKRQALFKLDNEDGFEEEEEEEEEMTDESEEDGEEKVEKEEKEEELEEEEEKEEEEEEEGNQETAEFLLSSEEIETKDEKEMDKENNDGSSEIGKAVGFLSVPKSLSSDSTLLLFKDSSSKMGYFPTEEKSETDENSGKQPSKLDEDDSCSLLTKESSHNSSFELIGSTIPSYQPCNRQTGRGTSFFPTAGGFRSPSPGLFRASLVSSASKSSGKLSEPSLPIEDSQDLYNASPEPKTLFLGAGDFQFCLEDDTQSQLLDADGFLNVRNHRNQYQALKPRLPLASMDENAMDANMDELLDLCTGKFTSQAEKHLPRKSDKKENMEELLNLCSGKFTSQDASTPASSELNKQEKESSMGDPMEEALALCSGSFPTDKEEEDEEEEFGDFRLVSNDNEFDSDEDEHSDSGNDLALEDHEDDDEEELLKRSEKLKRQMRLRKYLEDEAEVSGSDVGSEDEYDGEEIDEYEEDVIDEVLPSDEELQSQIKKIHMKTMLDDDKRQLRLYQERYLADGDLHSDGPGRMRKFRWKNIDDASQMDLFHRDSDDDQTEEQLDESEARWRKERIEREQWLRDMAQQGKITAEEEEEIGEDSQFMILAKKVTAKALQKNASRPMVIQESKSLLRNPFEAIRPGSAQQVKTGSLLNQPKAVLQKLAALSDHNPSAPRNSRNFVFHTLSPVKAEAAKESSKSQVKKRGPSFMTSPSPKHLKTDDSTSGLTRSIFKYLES

As to B1, the binding result in the assay with CLASPIN is reported as “binds”.

B2: MCM6 (natural protein, human)
chain: MDLAAAAEPGAGSQHLEVRDEVAEKCQKLFLDFLEEFQSSDGEIKYLQLAEELIRPERNTLVVSFVDLEQFNQQLSTTIQEEFYRVYPYLCRALKTFVKDRKEIPLAKDFYVAFQDLPTRHKIRELTSSRIGLLTRISGQVVRTHPVHPELVSGTFLCLDCQTVIRDVEQQFKYTQPNICRNPVCANRRRFLLDTNKSRFVDFQKVRIQETQAELPRGSIPRSLEVILRAEAVESAQAGDKCDFTGTLIVVPDVSKLSTPGARAETNSRVSGVDGYETEGIRGLRALGVRDLSYRLVFLACCVAPTNPRFGGKELRDEEQTAESIKNQMTVKEWEKVFEMSQDKNLYHNLCTSLFPTIHGNDEVKRGVLLMLFGGVPKTTGEGTSLRGDINVCIVGDPSTAKSQFLKHVEEFSPRAVYTSGKASSAAGLTAAVVRDEESHEFVIEAGALMLADNGVCCIDEFDKMDVRDQVAIHEAMEQQTISITKAGVKATLNARTSILAAANPISGHYDRSKSLKQNINLSAPIMSRFDLFFILVDECNEVTDYAIARRIVDLHSRIEESIDRVYSLDDIRRYLLFARQFKPKISKESEDFIVEQYKHLRQRDGSGVTKSSWRITVRQLESMIRLSEAMARMHCCDEVQPKHVKEAFRLLNKSIIRVETPDVNLDQEEEIQMEVDEGAGGINGHADSPAPVNGINGYNEDINQESAPKASLRLGFSEYCRISNLIVLHLRKVEEEEDESALKRSELVNWYLKEIESEIDSEEELINKKRIIEKVIHRLTHYDHVLIELTQAGLKGSTEGSESYEEDPYLVVNPNYLLED
notes: MCM6, human; Stood in the structure as a subunit of m1; source: Hi5 insect cells, purified as a subunit of hsCMG
Regarding B2, the binding result with TIMELESS and in the assay with CLASPIN was “binds” in each case.

B3: POLE2 (natural protein, human)
chain: MAPERLRSRALSAFKLRGLLLRGEAIKYLTEALQSISELELEDKLEKIINAVEKQPLSSNMIERSVVEAAVQECSQSVDETIEHVFNIIGAFDIPRFVYNSERKKFLPLLMTNHPAPNLFGTPRDKAEMFRERYTILHQRTHRHELFTPPVIGSHPDESGSKFQLKTIETLLGSTTKIGDAIVLGMITQLKEGKFFLEDPTGTVQLDLSKAQFHSGLYTEACFVLAEGWFEDQVFHVNAFGFPPTEPSSTTRAYYGNINFFGGPSNTSVKTSAKLKQLEEENKDAMFVFLSDVWLDQVEVLEKLRIMFAGYSPAPPTCFILCGNFSSAPYGKNQVQALKDSLKTLADIICEYPDIHQSSRFVFVPGPEDPGFGSILPRPPLAESITNEFRQRVPFSVFTTNPCRIQYCTQEITVFREDLVNKMCRNCVRFPSSNLAIPNHFVKTILSQGHLTPLPLYVCPVYWAYDYALRVYPVPDLLVIADKYDPFTTTNTECLCINPGSFPRSGFSFKVFYPSNKTVEDSKLQGF
notes: human POLE2, subunit of Pol ε; residues 1-527 modelled; Purified with POLE1, POLE3 (C-terminal TEV CBP tag) and POLE4
As to B3, the binding result with MCM3 is “binds”.
